Measured values taken from article PMC11550485 (Science (New York, N.Y.), 2023).

Target: 6×His-GFP-tau (human, UniProt P10636-8 1-441)
Experiment: pull-down

- binding result: binds
B1: GST-TRIM11 (natural protein, human, UniProt Q96F44 1-468, looked up)
chain: MAAPDLSTNLQEEATCAICLDYFTDPVMTDCGHNFCRECIRRCWGQPEGPYACPECRELSPQRNLRPNRPLAKMAEMARRLHPPSPVPQGVCPAHREPLAAFCGDELRLLCAACERSGEHWAHRVRPLQDAAEDLKAKLEKSLEHLRKQMQDALLFQAQADETCVLWQKMVESQRQNVLGEFERLRRLLAEEEQQLLQRLEEEELEVLPRLREGAAHLGQQSAHLAELIAELEGRCQLPALGLLQDIKDALRRVQDVKLQPPEVVPMELRTVCRVPGLVETLRRFRGDVTLDPDTANPELILSEDRRSVQRGDLRQALPDSPERFDPGPCVLGQERFTSGRHYWEVEVGDRTSWALGVCRENVNRKEKGELSAGNGFWILVFLGSYYNSSERALAPLRDPPRRVGIFLDYEAGHLSFYSATDGSLLFIFPEIPFSGTLRPLFSPLSSSPTPMTICRPKGGSGDTLAPQ
